Data on 4 molecules can be found in patent US20240360194A1, “New Peptides as Potent and Selective GIP Receptor Agonists” (Sanofi, priority 2021, published 2024).

Values after ≈ are worked out from the molar mass of the structure shown. Numbered stars: 1 amine (or outer) side, 2 acyl side, 3 side chain; on linkers, the order of the positions; unused ones are H or OH. Square brackets hold non-standard residues; d marks the D form. Side chains are listed from the residue outwards. Ends that are not written are not given here. Peptide text beside a SMILES is read from it. * marks the point of attachment. C18 diacid = O=C(O)CCCCCCCCCCCCCCCCC(=O)*; γGlu = O=C(O)[C@H](CCC(=O)[*:2])N[*:1]; Iva = CC[C@](C)(N)C(=O)O; AEEA = NCCOCCOCC(=O)O; Aib = CC(C)(N)C(=O)O Bounds are passed on as bounds.

A word on the solubility: it is how much of the substance goes into solution per volume. The EC50 is the midpoint of the concentration-response curve. High values mean weaker potency, low ones greater potency. The Emax is the size of the effect at its maximum, as opposed to the concentration needed. One may read the IC50 as the concentration that gives 50% inhibition. A lower IC50 goes with greater potency.

Data set [1] in a line: Chemical stability assessment (UHPLC-UV purity loss on storage in solution). It is filed as physicochemical. The following applies: Chemical stability buffer system A: 20 mM phosphate buffer pH 7.4; ~300 μM. The protocol:
Purity of a peptide batch was determined through UHPLC/MS prior to chemical stability measurement. The target concentration was 300 μM pure compound. Solutions from solid samples were prepared in the following buffer systems with a concentration of ˜300 μM compound based on the previously determined % purity: • Chemical stability buffer system A) 20 mM phosphate buffer pH 7.4, • Chemical stability buffer system B) 8 mM phosphate buffer pH 7.4, 14 mg/ml propylene glycol, 5.5 mg/ml phenol • Chemical stability buffer system C) 100 mM phosphate buffer pH 7.4, 2.7 mg/ml m-cresol
Prepared solutions were filtered through […] pore size and filled into sterilized glass containers under laminar flow conditions.
Glass containers were stored for 28 days at 5 and 40° C. After this time, the samples were centrifuged for 15 min at 2500 RCF. Then 1.5 μl of the undiluted supernatant were analysed with UHPLC-UV.
The chemical stability was rated through the relative loss of purity calculated by the equation: […]
The purity is calculated as
The analytical methods used were Analytical UHPLC Method B or C.
Peptide samples were prepared in Chemical stability buffer system A or B and stability was assessed as described in Methods.

Data set [2] can be described thus: Solubility assessment (UHPLC-UV of supernatant, target 10 mg/ml). Format: physicochemical. The essentials:
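Peptides at 10 mg/ml (purity-corrected) in 100 mM phosphate pH 7.4, optionally with 2.7 mg/ml m-cresol; gentle agitation 1 h, then 5° C. overnight (24 h). Supernatant after 15 min centrifugation at 2500 RCF quantified by UHPLC-UV, with sequence-based extinction coefficients.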

Data set [3] has as its target human GLP-1 receptor (hGLP-1R) (Homo sapiens, UniProt P43220). As to the kind of experiment: In vitro cellular cAMP assay for GLP-1 receptor efficacy (HEK-293 cell line over-expressing receptor). It is filed as cell-based. The following applies: HEK-293, 0.1% BSA. (In general: Changes in cAMP serve as a functional read-out for many G protein-coupled receptors.)
Data set [4] deals with T1, human GIP receptor (Homo sapiens, UniProt P48546).
T1 construct: human adipocytes endogenously expressing the human GIP receptor; host or cells: human preadipocytes (Lonza) differentiated to adipocytes
T1 sequence (P48546 22-466): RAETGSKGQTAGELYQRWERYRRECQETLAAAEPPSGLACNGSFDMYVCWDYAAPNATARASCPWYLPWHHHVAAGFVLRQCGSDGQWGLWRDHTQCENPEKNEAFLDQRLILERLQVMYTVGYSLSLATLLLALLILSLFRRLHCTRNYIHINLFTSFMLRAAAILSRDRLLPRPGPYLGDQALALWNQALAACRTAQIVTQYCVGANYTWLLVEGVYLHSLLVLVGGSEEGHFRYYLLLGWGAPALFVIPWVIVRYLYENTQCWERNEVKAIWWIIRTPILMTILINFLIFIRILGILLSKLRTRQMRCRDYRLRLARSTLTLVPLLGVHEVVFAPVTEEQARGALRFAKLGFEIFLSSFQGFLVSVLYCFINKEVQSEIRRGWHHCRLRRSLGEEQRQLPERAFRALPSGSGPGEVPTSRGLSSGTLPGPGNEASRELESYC
The experiment in a line: In vitro cellular cAMP assay for GIP receptor efficacy (human adipocytes). Format: cell-based. To be noted: read-out: hGIPR Emax. The essentials: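 cAMP is read by HTRF (665/620 nm ratio, 1 h after reagents in lysis buffer) following 30 min compound exposure at room temperature. Cells are human preadipocyte-derived adipocytes, differentiated 6 days with insulin, dexamethasone, IBMX (200 μM), PPARγ agonist and L-thyroxine, seeded 5000 per well.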

For data set [5], the target named is T2, human GIP receptor (hGIPR) (Homo sapiens, UniProt P48546).
T2 sequence (P48546 22-466): T1 sequence (P48546 22-466)
The experiment in a line: Binding assay, displacement of [125I]GIP from HEK-293 membranes over-expressing GIPR (SPA). To be noted: [125I]GIP displacement. The procedure, abridged: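 Membranes from HEK-293 cells over-expressing human GIPR or GLP-1R, isolated by homogenising, sonicating and ultracentrifuging at 100000×g into HEPES/EDTA/NaCl buffer with protease inhibitors, were used for binding.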
A general note: Displacement assays read how much labelled ligand stays bound in the presence of the test substance.

The target in data set [6] is T3, human GIP receptor (human), P48546.
T3 chain: T1 sequence (P48546 22-466)
As to the kind of experiment: cell-based or functional assay.

Data set [7] has the same target. The experiment in a line: displacement of [125I]GIP from HEK-293 membranes expressing hGIPR (SPA beads).
Data set [8] addresses T4, human GLP-1 receptor (human), P43220.
T4 chain: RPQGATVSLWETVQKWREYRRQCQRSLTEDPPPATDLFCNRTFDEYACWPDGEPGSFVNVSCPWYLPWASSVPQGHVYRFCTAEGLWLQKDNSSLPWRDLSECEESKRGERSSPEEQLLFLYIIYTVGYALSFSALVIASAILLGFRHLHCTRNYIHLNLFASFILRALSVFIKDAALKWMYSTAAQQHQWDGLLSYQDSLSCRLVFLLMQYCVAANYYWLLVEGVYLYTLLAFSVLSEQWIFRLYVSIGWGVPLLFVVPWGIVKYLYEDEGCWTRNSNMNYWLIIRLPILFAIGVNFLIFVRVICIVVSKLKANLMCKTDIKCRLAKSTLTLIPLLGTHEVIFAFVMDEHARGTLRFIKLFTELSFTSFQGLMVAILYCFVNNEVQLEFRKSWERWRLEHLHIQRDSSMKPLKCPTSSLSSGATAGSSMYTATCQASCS
As to the kind of experiment: displacement of [125I]GLP-1 from HEK-293 membranes expressing hGLP-1R (SPA beads).

Data set [9] concerns the target T5, human GIP receptor (human, UniProt P48546 22-466).
T5 sequence (looked up): T1 sequence (P48546 22-466)
As to the kind of experiment: cell-based or functional assay.

The target in data set [10] is T6, human GLP-1 receptor (human, UniProt P43220 24-463). The experiment in a line: cell-based or functional assay.
In data set [11] the target is T5, human GIP receptor. The experiment in a line: cell-based or functional assay. This is another data set of the same source.
Data set [12] concerns the target T5, human GIP receptor. The experiment in a line: displacement of [125I]GIP from HEK-293 membranes expressing hGIPR (SPA beads).
Data set [13] addresses T6, human GLP-1 receptor. The experiment in a line: displacement of [125I]GLP-1 from HEK-293 membranes expressing hGLP-1R (SPA beads).

For the molecule `CC[C@H](C)[C@H](NC(=O)[C@H](CCCNC(=N)N)NC(=O)[C@H](CC(=O)O)NC(=O)[C@H](CCCCNC(=O)COCCOCCNC(=O)COCCOCCNC(=O)CC[C@H](NC(=O)CCCCCCCCCCCCCCCCC(=O)O)C(=O)O)NC(=O)C(C)(C)NC(=O)[C@@H](NC(=O)[C@H](CO)NC(=O)[C@H](CC(C)C)NC(=O)[C@H](CC(=O)O)NC(=O)[C@H](CO)NC(=O)[C@@H](NC(=O)[C@H](Cc1ccccc1)NC(=O)[C@@H](NC(=O)CNC(=O)[C@H](CCC(=O)O)NC(=O)C(C)(C)NC(=O)[C@@H](N)Cc1ccc(O)cc1)[C@@H](C)O)[C@@H](C)CC)[C@@H](C)CC)C(=O)N[C@@H](Cc1c[nH]cn1)C(=O)N[C@@H](CCC(N)=O)C(=O)NC(C)(C)C(=O)N[C@@H](CCC(=O)O)C(=O)N[C@@H](Cc1ccccc1)C(=O)N[C@H](C(=O)N[C@@H](CCC(=O)O)C(=O)N[C@@H](Cc1c[nH]c2ccccc12)C(=O)N[C@@H](CC(C)C)C(=O)N[C@@H](CC(C)C)C(=O)N[C@@H](C)C(=O)N[C@@H](CCC(N)=O)C(=O)N[C@@H](CCC(=O)O)C(=O)N1CCC[C@H]1C(=O)N[C@@H](CO)C(=O)N[C@@H](CO)C(=O)NCC(=O)N[C@@H](C)C(=O)N1CCC[C@H]1C(=O)N1CCC[C@H]1C(=O)N1CCC[C@H]1C(=O)N[C@@H](CO)C(N)=O)[C@@H](C)CC` [SEQ ID NO: 29, H2N-Y-Aib-E-G-T-F-I-S-D-L-S-I-Aib-K[{AEEA}2-gGlu-C18OH]-D-R-I-H-Q-Aib-E-F-I-E-W-L-L-A-Q-E-P-S-S-G-A-P-P-P-S-NH2] (H-Y[Aib]EGTFISDLSI[Aib]K([AEEA-AEEA-γGlu-C18 diacid])DRIHQ[Aib]EFIEWLLAQEPSSGAPPPS-NH2), the “Relative purity loss over 28 days at 40° C.” value in [1] was determined as 5.6%. Moreover, the Soluble amount in data set [2] (24 h, pH 7.4) was 9.1 mg/mL. For the same molecule, the solubility at 24 h in [2] (pH 7.4, Soluble amount) worked out at 8000 µg/mL (≈ 1590 µM). The EC50 in data set [3] is more than 10 nM. Also, the Emax at human GIP receptor [4] amounted to 119%. This molecule also yielded an IC50 in data set [5] of 0.2 nM.

For Y[Aib]EGTFISDLSI[Aib]LEEQKQ[Aib]EFIEWLLAQGPSSGEPPPS-NH2 [SEQ ID NO: 38], in [6], the EC50 hGIPR 0% HSA (cAMP, HEK-293) was found to be 0.00019 nM; the EC50 hGIPR 0.1% BSA (cAMP, HEK-293) is 0.0531 nM; the hGIPR EC50 (cAMP, human adipocytes) was 0.4 nM; the hGIPR Emax (cAMP, human adipocytes) stood at 92%. The IC50 in [7] was determined as 0.2 nM. This molecule had an IC50 in data set [8] of 73 nM.

Take H-Y[Aib]EGT[Iva]ISDLSI[Aib]K([AEEA-AEEA-γGlu-C18 diacid])DRIHQEEFIEWLLAQGPSSGAPPPS-NH2 (Synthetic peptide, 39 residues) [SEQ ID NO: 24]: in the data set with human GIP receptor [9], the “EC50 hGIPR 0% HSA (cAMP, HEK-293)” value amounted to 0.00056 nM and the “EC50 hGIPR 0.1% BSA (cAMP, HEK-293)” value came out at 0.0366 nM. For the same molecule, the “EC50 hGLP-1R 0.1% BSA (cAMP, HEK-293)” value with human GLP-1 receptor [10] is more than 10 nM. Further, in the data set with human GIP receptor [11], the “hGIPR EC50 (cAMP, human adipocytes)” value was found to be 0.2 nM and the “hGIPR Emax (cAMP, human adipocytes)” value worked out at 100%. This molecule yielded a concentration for half-maximal inhibition (IC50) with human GIP receptor [12] of 0.1 nM. The molecule also yielded an IC50 with human GLP-1 receptor [13] of 188 nM.

B1: SEQ ID NO: 19 (peptide)
peptide: Y[Aib]EGTFISDLSI[Aib]K([AEEA-AEEA-γGlu-C18 diacid])EEIHQ[Aib]EFIEWLLAQGPSSGAPPPS-NH2
modifications: N-terminus assumed
SMILES: CC[C@H](C)[C@H](NC(=O)[C@H](CCC(=O)O)NC(=O)[C@H](CCC(=O)O)NC(=O)[C@H](CCCCNC(=O)COCCOCCNC(=O)COCCOCCNC(=O)CC[C@H](NC(=O)CCCCCCCCCCCCCCCCC(=O)O)C(=O)O)NC(=O)C(C)(C)NC(=O)[C@@H](NC(=O)[C@H](CO)NC(=O)[C@H](CC(C)C)NC(=O)[C@H](CC(=O)O)NC(=O)[C@H](CO)NC(=O)[C@@H](NC(=O)[C@H](Cc1ccccc1)NC(=O)[C@@H](NC(=O)CNC(=O)[C@H](CCC(=O)O)NC(=O)C(C)(C)NC(=O)[C@@H](N)Cc1ccc(O)cc1)[C@@H](C)O)[C@@H](C)CC)[C@@H](C)CC)C(=O)N[C@@H](Cc1c[nH]cn1)C(=O)N[C@@H](CCC(N)=O)C(=O)NC(C)(C)C(=O)N[C@@H](CCC(=O)O)C(=O)N[C@@H](Cc1ccccc1)C(=O)N[C@H](C(=O)N[C@@H](CCC(=O)O)C(=O)N[C@@H](Cc1c[nH]c2ccccc12)C(=O)N[C@@H](CC(C)C)C(=O)N[C@@H](CC(C)C)C(=O)N[C@@H](C)C(=O)N[C@@H](CCC(N)=O)C(=O)NCC(=O)N1CCC[C@H]1C(=O)N[C@@H](CO)C(=O)N[C@@H](CO)C(=O)NCC(=O)N[C@@H](C)C(=O)N1CCC[C@H]1C(=O)N1CCC[C@H]1C(=O)N1CCC[C@H]1C(=O)N[C@@H](CO)C(N)=O)[C@@H](C)CC
notes: Synthetic peptide, 39 residues
As to B1, in the data set with human GIP receptor [9], the “EC50 hGIPR 0% HSA (cAMP, HEK-293)” value came out at 0.0002 nM; the “EC50 hGIPR 0.1% BSA (cAMP, HEK-293)” value stood at 0.0378 nM; the “EC50 hGIPR 0.1% HSA (cAMP, HEK-293)” value worked out at 0.0015 nM. Besides, in the data set with human GLP-1 receptor [10], the “EC50 hGLP-1R 0.1% BSA (cAMP, HEK-293)” value was more than 10 nM. For the same molecule, in the data set with human GIP receptor [11], the “hGIPR EC50 (cAMP, human adipocytes)” value came out at 8 nM and the “hGIPR Emax (cAMP, human adipocytes)” value came out at 94%. The molecule also displayed an IC50 in the data set with human GIP receptor [12] of 2 nM.
